The data set concerns the molecule itself. In words: non-reducing versus reducing SDS-PAGE with immunoblot; proteins precipitated from conditioned media of stable SH-SY5Y lines; about 110 kDa band on non-reducing gels, 55 kDa CRLF1 band on reducing gels; blots for CRLF1 and CLCF1.

Experimental findings from article PMC3688593, “Cytokine Receptor-Like Factor 1 (CRLF1) Protects against 6-Hydroxydopamine Toxicity Independent of the gp130/JAK Signaling Pathway” (PLoS ONE, 2013) are described below.

One may read the stoichiometry N as the number of molecules, sites or subunits per partner or assembly.

B1: cytokine receptor-like factor 1 (CRLF1), full-length, untagged (natural protein, UniProt O75462 38-422, looked up)
chain: AHTAVISPQDPTLLIGSSLLATCSVHGDPPGATAEGLYWTLNGRRLPPELSRVLNASTLALALANLNGSRQRSGDNLVCHARDGSILAGSCLYVGLPPEKPVNISCWSKNMKDLTCRWTPGAHGETFLHTNYSLKYKLRWYGQDNTCEEYHTVGPHSCHIPKDLALFTPYEIWVEATNRLGSARSDVLTLDILDVVTTDPPPDVHVSRVGGLEDQLSVRWVSPPALKDFLFQAKYQIRYRVEDSVDWKVVDDVSNQTSCRLAGLKPGTVYFVQVRCNPFGIYGSKKAGIWSEWSHPTAASTPRSERPGPGGGACEPRGGEPSSGPVRRELKQFLGWLKKHAYCSNLSFRLYDQWRAWMQKSHKTRNQDEGILPSGRRGTARGPAR
notes: signal peptide in the construct; cytokine receptor-like factor 1 (CRLF1), untagged full-length open reading frame in pCDH-EF1-MCS-IRES-neo; detected in the conditioned medium as the secreted protein; The 110 kDa band is lost on reduction, so the dimer appears to be disulfide-linked; also called CRLF1-FL; FL
With B1, the “stoichiometry N” value stood at 2.
